From patent US20150353614

How the values were obtained:
Experiment in all cases: cell_activity
[1] = molecular target: IA44 R267H (Escherichia coli) (UniProt P0A9E0); conditions: twice the Tmax of IA; E. coli HC175
[2] = molecular target: IA32 L39M,S127C (Escherichia coli) (UniProt P0A9E0); conditions: half the Tmax of IA; E. coli HC175
[3] = molecular target: IA (Idi-AraC DBD chimera) (Escherichia coli) (UniProt P0A9E0); conditions: no mevalonate

| Sequence | activity (Tmax relative to IA) [1] | activity (Tmax relative to IA) [2] | activity ([3]; 0.36 with 10 mM mevalonate, E. coli HC175) [relative RFP] | activity ([3]; 0.56 with 10 mM mevalonate) [relative RFP] |
| --- | --- | --- | --- | --- |
| TAGCATTTTTATCCATAAGATTAGCGGATCCTACCTGA (double strand) [I1I2 in PBAD] | 2 | 0.5 | 1 | – |
| TAGCGGATCCTACCTGAAGATTAGCATTTTTATCCATA (double strand) [I2I1 in PBAD] | – | – | – | 1.12 |
